Laboratory results as given in the nanobody polyreactivity screen of Harvey et al. (2022).

Test: yeast display, Sf9 membrane polyspecificity reagent, FACS + sequencing; frameworks hold sequencing errors
In short: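 A synthetic nanobody library was expressed on Saccharomyces cerevisiae BJ5465 by galactose induction for 36–48 hours. The library was stained for 1 hour at 4 °C with 10% biotinylated, detergent-solubilized Sf9 membrane reagent and enriched with streptavidin microbeads before FACS. Low and high (top ~1%) gates were set on anti-HA fluorescence for expression and streptavidin fluorescence for reagent binding, and each polyreactivity label reflects the gate of origin.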

Sequence	polyreactivity (PSR sort gate)
QVQLVESGGGLVQAGGSLRLTCAASGRIFSHNTMGWYRQAPGKERELVAAISGGGGRTYYADSVKGRFTISRDNAKNTVYLQMKSLKPEDTAVYYCAAVRVSYRSLSKSYYWGQGTQVTVSS	high polyreactivity
QVQLVESGGGLVQAGGSLRISCAASGIIFKQNVMGWYRQAPGKERELVAAITSRDGSTYYADSVKGRFTISRDNAKNTVYLQMNSLKPEDTAVYYCAANWRSPRYYLYGYWGQGTQVTVSS	high polyreactivity
QVQLVESGGGLVQAGGSLRLSCAPSGYIFPFNALGGYRQAPGKERELVAAINNGGRTYYADSVKGRFTISRDNAKNTVFLQMHSLKPEDTAVDSCAAGSKSDMDWGQGTQVTVSS	low polyreactivity
QVQLVEYGGGLVQAGGSLRLSCAASGRIFGYYTMGWYRQAPRKERELVAAITSSGGRTYYADSVKGRFTISRDNAKNTVYLQMNSLKPEDTAVYYCNKVTFGYAYWRYDGYDYWGQGTQVTVSS	low polyreactivity
QVQLVESGGGLVQAAASLRLSCAAYGITFNSYVMGWSRQAPGKERELVAVISRGGGITYYADSVKGRFTISRDNAKNTVYLQMNSLKPEDTAVYYCAADHTHVYVLYYNDNYWGQGTQVTVSS	high polyreactivity
QVQLVESGGGLVQAGGSLRLSCAASGIIFRYYAMGWYRQAPGKERELVARITSRGGTYYADSVKGRFTISRDNAKNTVYLQMNSLKPEDTAVYDCAASYLLTHGYAYNYWGQGTQVTVSS	high polyreactivity
QVQLVESGGGLVQAGGSLRLSCAASGFTFDINTMGWYRQAPGKERELVAAITYSGGSTYYADSVKGRFTISRDKAKNTVYLQMNSLKPEDTAVYYCATTWYFVASWYVAIYDYWGQGTQVTVSS	low polyreactivity
QVQLVESGGGIVQAGGSLRLSCAASGTLGSYRQAPGNEWELVAAISQSGGSTYYADSVKGRFTISRDNAKNTVYLQMNSLKPEDTAVYYCAVDPRYGHPRRDYWGQGTQVTVSS	low polyreactivity
QVQLVESGGGLVQAGGSLRLSCAASGSTFRGNTMGWYRQAPGKERELVAAISRRGGGTYYADSVKGRFTISRDNAKNTVYLQMNSLKPEDTAVYYCNKRARHTGDFVWGHGYWGQGTQVTVSS	low polyreactivity
QVQLVESGGGLVQAGGSLRLSCAASGRTFSGNTMGWYRQAPGKERELVAAISSGGSRTYYADSVKGRFTISRDNAKNTVYLLMNSLKPEDTAVYYCATVSTYYHYRRYDYWGQGTQVTVSS	high polyreactivity
EVHLVESGGGLVQPGGSLRLSCAASGDIYSRYRMGWYRQAPGKGREFVAAISGGSSTNYADSVKGRFTISRDNSKNTVYLQMNSLRAVDTAVSYCAAYKIDSDPRVYWGQGTQVTVSS	low polyreactivity
QVHLVESGGGLFQAGGSLRISCAASGSIFRFNVMGWYRQAPGKERELVAAITRGDSTNYADSVKGRFTISRDNAKNTVYLQMNSLKPEVTAVYYCAAGFYYYLRDHDYWGQGTQVTVSS	low polyreactivity
QVQLVESGGCLVQSGGSLRLSCAASGIILYYYAMGWYRQAPGKERELVAAISSGGNTYYADSVKGRFTISRDNAKNTVYLQMNSLKPEDPAVYFCASGTVIGGEYDYWGQGTQVTVSS	low polyreactivity
QVQLVESGGGLVQAGGSLRLSCAASGRTFRANDMGWYRQAPGKERELVAAISQSGGSTYYADSVKGRFTISRDNAKNTVYFQMNSLKPEDTAVYDCNALGRISNHTLYDYWGQGTQVTVSS	low polyreactivity
QVQLVESGGGLVQAGGSLRLSSAASGRTLASYAIGWYRQAPGQESELVAAISKRGGGTYYADSVKGRFTISRDNAKNTVYLQMNSLKPEDTAVYYCAKGTGYKPVVTTHPMDYWGQGTQVTVSS	high polyreactivity
QVQLVESGGGLFQAGGSHRLSCAASGSTFYYKAMGWYRQAPGKESELVARISRSGGSTYADSVKGRFTISRDNAKNNVYLQMNSLKPEDTAVYYCNKRGFYTPSVSYDYWGQGTQVTVSS	low polyreactivity
QVQLVESGGGLVQAGGSLRLSCAASGRTFNGYVMGWYRQAPGKERELVAAITNRDGSTYYADSVKGRFTISRDNAKNTVYLQMNSLKPEDTAVYYCAAPVWLWADRYDSWGQGTQVTVSS	low polyreactivity
QVQLVESGGGLVQAGGSLRLSCAASGSTFDPNTMGWYRQAPGKDRELVAAITSSTASTYYADSVKGRFTISRDNAKNTVYLQMNSLKPEDTAVYYCAADSEQDNLRYYRWVWYYYWGQGTQVTVSS	low polyreactivity
QVQLVESGGGLVQAGGSLRLSCAASGSTFKWNAMGWYRQAPGKERELVAAINSGGSTYYADSVKGRFTISRDNAKNTVYLQMNSLKPEDTAVYYCAKKWAVRTPFRYGIRYDYWGQGTQVTVSS	low polyreactivity
QVHLVESVGGLVQAGGSLRLSCAASGRTSGANAMGWYRQAPGKERELVAAIRYSVGSTYYADSVKGRFTISRDNAKNTVYLQMISLKPEDTAVYYCAARGYPKRGGYWGQGTQVTVSS	high polyreactivity
QVQLQESGGGLVQAGGSLRLSCAARGNNSSYYRMGWYRQAPGQEREFVATIAVGGTTNYADSVKGRFTISRDNEKTTLYLQRNSLKPEDTAVCFCAANSTQYTWFDYWGQGTQVPVSS	low polyreactivity
QVQLEESGGGLVQAGGSLRLSCAASGRTFLEYVMGWYRQAPGKERELVAVISWSTGSTYADSVKGRFTISRDNAKNTVYLQMNSLKPEDTAVYYCARRVQSLGNVVIYNYWGQGTQVTVSS	low polyreactivity

Sequence	polyreactivity (PSR sort gate)
QVQLVESGGGLVQAGGSLRLRCAASGYTLGPYAMGWYRQAPGKERELVAAISWGGGRTYYADSVKGRFTISRDNAKNTVYLQMNSLKPEDTAVYYCAAKWSHVRDGPKYDYWGQGTQVTVSS	low polyreactivity
QVQLQESGGGLVQAGGSLRLSSAASGTITVLYKMGWFRQPPGKQREFVASINYGTSTYYADSVKGRFTVSRDSAKKTVSLQMNSLKPEDTAVYYCAAAYRWQDVYRYWGQGTQVTVSS	low polyreactivity
QVQLVESGGGLVQAGGSLRLSCAASGLNFTYNAMGWSRQAPGKESELVAAITRSGGSTYYADSVKGRFTISRDNAKNTVYLQMNSLKPEDTAVYYCAKDDSAYSKYGYWGQGTQVTVSS	low polyreactivity
QVQLVESGGGLVQAGGSLRLSCAASGRIFYYYAMGWYRQAPGKERELVATISRSGGSTYYADSVKGRFTISRDNAKNTVYLQMNSLKPEDTAVYYCAAGYGPSGYTRYYWGQGTQVTVSS	high polyreactivity
QVQLVESGGGLVQAGGSLRLSCAASGSTFVDNAMGWCRQAPGKERELVADISSGGSTYYADSVKGRFTISRDNAKNTVYLQMNSLKPEDTAVYYCAARGVYRRGKYNSWGQGTQVTVSS	high polyreactivity
QVQLVESGGGLVQAGGSLRLSCAASGRIYNYYAMGWYIPAPGKERELVAAISSSGGRTYYADSVKGRFTISRDNAKNTVYLQMNSLKPEDTAVYYCAAYDSLRYSTYDYWGQGTQVTVSS	high polyreactivity
QVQLVESGGGIVQAGGSLRLSCAASGRIFRRYAMVWSRQAPGKQRELVAAISSGGGSTYYADSVKGRFTISRDNAKNTVYLQMNSLKPEDTAVFYCDAASSPRYDYWGQGTQVTVSS	high polyreactivity
QVQLVESAGGLVQAGGSLRLSCAASGSTFYRYAMGWYRQAPGKERELVAAISTRGGSTYYADSVKGRFTISRDNAKNTVYLQMNSLKPEDTAVYYCAAKSGSPDDYDYWGQGTQVTVSS	high polyreactivity
QVQHVESGGGLVQAGGSLRLSCAASGSTFWYYDMGWYRQAPGKEMELVAAISGSGGRTYYADSVKGRFTISRDNAKNTVYLQMNSLKPEDTAVYYCAADDYWSADFKYNYWGQGTQVTVSS	low polyreactivity
QVQLAESGGCLVQAGGTLRLSCAASGSTSAKNVMGWYRQPPGKERELVAAISRSGGRTYYADSVKGRFTISRDNAKNTVFLQMNSLKPEVSAVYYCANDYGGYYSRYDYWGQGTQVTVSS	high polyreactivity
QVQLVESGGGLVQAGGSLRLSCAASGFTFRANGMGWYRQAPGKERELVATITSGGTTNYADSVKGRFTISRDNAKNTVYFQMNSLKPEDTAVLYCAKRFGPAYFRLYDYWGQGTQVTVSS	low polyreactivity
QVQLVESGGGLVQAGGSLRLTCAATGIIFSYYAKGWYRQAPGKERELVAAISWGGGSTFYADSVKGRFTISRDNAKKTVSLQMKSLKPEDNAVLFCDADYGGDFGMDYCGQGTQVTVSS	low polyreactivity
QVQLVESGGGLVQAGGSLRLSCAASGRTSSVYAMGWYRQAPGKESELVAAINRSDGGTYYADSVKGRFTISRDNAKNTVYLQMNSLKPEDTAVYYCARRYYYQYRYDYWGQGTQVTVSS	high polyreactivity
QVQLVESGGGLVQAGGSLRLSCAGSGSIYSYNAMGWYRQAPGKERELVAAIDWSGGSTYYADSVKGRFTLSRDNAKNTVYLQMNSLKPEDTAVYYEYDYWGQGTQVTVSS	low polyreactivity
QVQLVESGGGLDQAGGSLRLSCAASGSIFTYYAIGWYRQAPGKERELVADISQRGGSTYYADSVKGRFTISRDNAKNTVYLQMISLKPEDTAVYYCATRARYTWRAFEYWGQGTQVNVSS	low polyreactivity
QVQLVESGGGLVQAGGSLRLSCAASGFTFGQYAMGWYRQAPGKERELVAAIRWSGGSSYYADSVKGRFTISRDNAKNTVYLQMNSLKPEDTAVYYCAARRFDGYEYDYWGQGTQVTVSS	low polyreactivity
QVHLVESGGGLVQAGGSLRLSCAASGRISQNALGWYRQAPGKEREVVAAITFSGGSTYYADSVKGRFTISRDNATNTVYLQMNSLKPEDNAVYYCNVRLYTDGLKYDYWGQGTQVTVSS	low polyreactivity
KVQLVESGGGLVQAGGSLRLSCAASGSTISGYAMGWYRQAPGKERELVAAITIGGGTYYADSVKGRFPISRDNAKNTVYLQMNSLKPEDTGVYYCNAYRRKLWYPTGMYWGQGTQVTVSW	high polyreactivity
QVQLVESGGGLVQAGGSLLLSCAASGGTFYYYAMGWYRQAPGKERELVASISSRGGSTYYADSVKGRFTISRDNAKNTVYLQMNSLKPEDTAVYYCAARSLYRGFGYWGQGTQVTVSS	high polyreactivity
QVQLVESGGGLVQAGGSLRLSCAASGITFGIYVMGCYRQAPGKEREFVATMSRSDDNTYYADSVKGRFTISRDNAKNTVYLQRNSLKPEDTAVYYCAADGVISAWYSSRDDYWGQGTQVTVSS	low polyreactivity
QVQLVESGGGLVQAGGSLRLSCAASGRILGPNAMGWYRQAPGKERELVAAINSGGSTNYADSVKGRFTISRDNAKNTVYLQMNSLKPEDTAVSYCAPDKARVAGYGVEYDYWGQGTQVTVSS	low polyreactivity
